From the supplement of paper PMC9170038 come the findings set out here.

The series deals with MS2 coat protein. Nature of the series: apparent KD of MS2 coat protein; designed switch direction (-1 OFF switch, 1 ON switch): 1; higher = weaker reporter binding. The essentials:
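Each step of the titration lasted 0.8–1.5 h at the lowest concentration and 10–20 min at the highest. The protein, SNAP-549-labelled MS2 coat protein, went from 0.7 or 1.5 nM doubling to 3 µM over RNA switches transcribed on Illumina chips by stalled E. coli RNA polymerase. Normalised cluster fluorescence was curve-fitted, and the per-design median over clusters is given as apparent KD.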

The mark [1] stands for this setting: input ligand: microRNA oligo, concentration not stated.
[2] abbreviates: Eterna round: R95, input ligand: FMN 200 uM.
Where [3] appears, read: Eterna round: R95, input ligand: microRNA oligo, concentration not stated.
The mark [4] stands for this setting: Eterna round: R95, input ligand: none.

Regarding “GUAGCAUACCGAGGAUAUUCAUACAUGAGGAUCACCCAUGUUAAUAGGCCACAUUAGUGGCCUUGGGAGAAGGCGGAAUGCUAC [Xeonanis - 20 Mod46] (Eterna round: R96, puzzle: Same State NG 2)”, the “apparent KD of MS2 coat protein” value turned out to be 14.1 nM (input ligand: FMN 200 uM), 10.7 nM under setting [1] and 16.6 nM (input ligand: none).
For the sequence “CUCGAGAGGUUAUAGGAUAUCCAUUUACGUACAUGAGGAUCACCCAUGUCUGACCGCUGGGUCAGGGAGAAGGGUAAGAUCGAGA [Tegeoror] (puzzle: Same State 2)”, the “apparent KD of MS2 coat protein” value reads like this: under setting [2], 275 nM; under setting [3], 420 nM; under setting [4], 600 nM.
On to “GCUCGAUGAGCGGUUUACAUGAGGAUCACCCAUGUACGUGGGCAGGAUAUUUACGUGCUUUGUGUAGAGAAGGGCCCAUCGAGC [SameState NG3 #73] (Eterna round: R96, puzzle: Same State NG 3)”, for which the “apparent KD of MS2 coat protein” value reads like this: (input ligand: FMN 200 uM) 39.8 nM; under setting [1], 191 nM; (input ligand: none) 405 nM.
Turning to “GCCGCAGGCUAAGGAUAUUGCGUGAUCACAUGAGGAUCACCCAUGUCAAUAUCGCUACGGAAGAGCAAGAAGGUAGCGCCGCAG [Eternabot solution 10] (Eterna round: R96, puzzle: Same State NG 2)”, the “apparent KD of MS2 coat protein” value (input ligand: FMN 200 uM) turned out to be 188 nM, the “apparent KD of MS2 coat protein” value under setting [1] came to 182 nM and the “apparent KD of MS2 coat protein” value (input ligand: none) was found to be 127 nM.
Consider “CGUCCGGCCUGUGCUGGCCGGUGGCUUGUACAUGAGGAUCACCCAUGUUCUUGUGCUGGCUUGUUGCUCGUCUUGUG [salish99_mir208a_r3_022] (puzzle: Sensor for hsa-mir-208a)”, for which the “apparent KD of MS2 coat protein” value is, setting by setting: under setting [2], 27.9 nM; under setting [3], 19.1 nM; under setting [4], 33.4 nM.
For “CAGCGUACCGGAGGAUAUUGUGGAUACGACCAACAUGAGGAUCACCCAUGUGGGACUAGUCAAAUCAAGAAGGUUGGACCGUCA [Eternabot solution 44] (Eterna round: R96, puzzle: Same State NG 2)”, the “apparent KD of MS2 coat protein” value reads like this: (input ligand: FMN 200 uM) 26.2 nM; under setting [1], 25.6 nM; (input ligand: none) 33.3 nM.
Taken in the same sequence, the figures for “GUAGCAUACCGAGGAUAUUCAUAUACAUGAGGAUCACCCAUGUUUAUAGGUCGAUUACGACCUUGGGAGAAGGCGGAAUGCUAC [Xeonanis - 20 Mod31] (Eterna round: R96, puzzle: Same State NG 2)” were 10.8 nM, 9.68 nM and 13.9 nM.
As to “GGUGUACAUGAGGAUCACCCAUGUCGUACGACAUGAGGAUAUGUACAGACUUCGGUCUGUACAGAAGGCAUGUGUC [SS1 - 1011 Omei Mod 5] (puzzle: Same State 1)”, the “apparent KD of MS2 coat protein” value under setting [3] worked out at 210 nM.
On to “UAGAAACAUGAGGAUCACCCAUGUGUCAAAGACAUAGGAUAUCACGGCUAAAAUCAGCCGUGAGAAGGGUGGUAAA [Aisbira] (puzzle: Same State 1)”, for which the “apparent KD of MS2 coat protein” value by setting is: under setting [2], 57.1 nM; under setting [3], 61.1 nM; under setting [4], 56.2 nM.
In the case of “AUCCGGAGAAAACAAAUCCGACAUGAGGAUCACCCAUGUACACAGGAUAUCAGCCCGUUGAGGGCUGAGAAGGGUGGCCGAGUG [Cexeati] (Eterna round: R96, puzzle: Same State NG 3)”, the “apparent KD of MS2 coat protein” value stood at 267 nM (input ligand: FMN 200 uM), 72.7 nM under setting [1] and 130 nM (input ligand: none).
Consider “AAGAGAGAAAUACAGGAUAUGAGGAGAGGAACAUGAGGAUCACCCAUGUGAGAGAAAGGGAAGAAUCAGAAGGGUAGAGAAGAGA [JR_SS2_Sub002] (puzzle: Same State 2)”, for which the “apparent KD of MS2 coat protein” value is, setting by setting: under setting [2], 31.8 nM; under setting [3], 47 nM; under setting [4], 73.8 nM.
Taken in the same sequence, the figures for “AUUAAACAUGAGGAUCACCCAUGUCAACAAAGUCGAGGAUAUGGGCAAAUAAUAUAAUAACCAGAAGGCGAAUAAU [salish99_ss1_r3_081] (puzzle: Same State 1)” were 36.7 nM, 28.1 nM and 97 nM.
For the sequence “GCUGCAAUUAACGCCUACAUGAGGAUCACCCAUGUAUGUAGGCAGGAUAUCGUUUGCUUUGCAAACGAGAAGGGCUGUAGUAGC [JL SSNG3 1.13] (Eterna round: R96, puzzle: Same State NG 3)”, the “apparent KD of MS2 coat protein” value worked out at 67.2 nM (input ligand: FMN 200 uM), 84.5 nM under setting [1] and 108 nM (input ligand: none).
“AGUCCACGCUGACGUGGACAAAAGCAUGUACAUGAGGAUCACCCAUGUCAUGUACAAGCUUUUUGCUCGUCUUAAUA [Mat - hsa-mir-208a - Mod of JL - D43] (puzzle: Sensor for hsa-mir-208a)”: the “apparent KD of MS2 coat protein” value is, setting by setting: under setting [2], 478 nM; under setting [3], 14.9 nM; under setting [4], 549 nM.
Turning to “AGUCCACGCUGACGUGGACAAAAGCAUGUACAUGAGGAUCACCCAUGUCAUGUACAAGCUUUUUGCUCGUCUUAAAA [Mat - hsa-mir-208a - Mod of JL - D17] (Eterna round: R96, puzzle: Sensor for hsa-mir-208a)”, the “apparent KD of MS2 coat protein” value is 346 nM (input ligand: FMN 200 uM), 13.2 nM under setting [1] and 447 nM (input ligand: none).
For “GACAGACAUGAGGAUCACCCAUGUACAAACGUACAAGGAUAUGUGUGGAAACCGUACUAUACAGAAGGUGUCUGUC [SS1 - 90] (Eterna round: R96, puzzle: Same State 1)”, the “apparent KD of MS2 coat protein” value under setting [1] came to 71.3 nM.
With “AGCACGAUUCGAGGAUAUGAGUCACAUGAGGAUCACCCAUGUCUAAUGGAUGGGACGGCCCAACCUCAGAAGGCGAUACCGGCA [Eternabot solution 24] (Eterna round: R96, puzzle: Same State NG 2)”, the “apparent KD of MS2 coat protein” value reads like this: (input ligand: FMN 200 uM) 392 nM; under setting [1], 307 nM; (input ligand: none) 338 nM.
For “GCUCGAUGAGCGUUCUACAUGAGGAUCACCCAUGUUCGUGGGCAGGAUAUUUACGUGCAGAGUGUAGAGAAGGGCCCAUCGAGC [SameState NG3 #67] (Eterna round: R96, puzzle: Same State NG 3)”, the “apparent KD of MS2 coat protein” value reads like this: (input ligand: FMN 200 uM) 1260 nM; under setting [1], 270 nM; (input ligand: none) 196 nM.
“GAUAUACAUGAGGAUCACCCAUGUCAUAUGACAUGAGGAUAUGUACAGACUUCGGUCUGUACAGAAGGCAUGUGUC [SS1 - 1011 Omei Mod 1] (puzzle: Same State 1)”: the “apparent KD of MS2 coat protein” value is 60.5 nM under setting [2], 338 nM under setting [3] and 530 nM under setting [4].
In the case of “GUUAGGAAUCUAGCAUACAUGAGGAUCACCCAUGUAAGUGGGAAGGAUAUGGUACAGAAACUGUACCAGAAGGUCUUAUUGUUU [Omei SS(NG) 3 AV7] (Eterna round: R96, puzzle: Same State NG 3)”, the “apparent KD of MS2 coat protein” value runs as follows: (input ligand: FMN 200 uM) 149 nM; under setting [1], 366 nM; (input ligand: none) 330 nM.
For “GGUAGGUUACUACCAAACAUGAGGAUCACCCAUGUAAGUGGGAAGGAUAUGGUACCGAAACGGUACCAGAAGGUCCAUAUAGUA [Mat - Same State NG 3 - JL Mod - D100] (Eterna round: R96, puzzle: Same State NG 3)” the same measures were 324 nM, 564 nM and 1100 nM.
